Results from article PMC5027513 (Nucleic Acids Research, 2016).

Legend:
[1] = target: the molecule itself; experiment: two-hybrid
[2] = target: T1, TnpA (IS608 transposase, Y1 HuH) (UniProt Q933Z0 1-155); experiment: EMSA
T1 sequence: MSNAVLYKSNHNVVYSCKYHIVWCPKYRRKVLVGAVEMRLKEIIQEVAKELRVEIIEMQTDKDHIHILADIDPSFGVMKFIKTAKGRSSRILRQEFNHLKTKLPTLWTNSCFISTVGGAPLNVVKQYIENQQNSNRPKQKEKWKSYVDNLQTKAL

[3] = target: T1, TnpA (IS608 transposase, Y1 HuH); experiment: EMSA; remark: listed apart in the source
[4] = target: T1, TnpA (IS608 transposase, Y1 HuH); experiment: EMSA; remark: listed apart in the source
[5] = target: T1, TnpA (IS608 transposase, Y1 HuH); experiment: competition
[6] = target: Ssb (UniProt P0AGE0 1-178); experiment: EMSA
Sequence of Ssb (P0AGE0 whole entry): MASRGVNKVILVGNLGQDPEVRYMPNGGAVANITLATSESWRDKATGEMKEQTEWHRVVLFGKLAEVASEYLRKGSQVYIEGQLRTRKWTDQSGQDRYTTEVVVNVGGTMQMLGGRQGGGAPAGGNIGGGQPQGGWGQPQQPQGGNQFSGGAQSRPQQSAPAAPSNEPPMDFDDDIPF

B1: TnpAIS608, transposase of IS608, BACTH hybrid (T25-TnpAIS608 or TnpAIS608-T18) (enzyme, Helicobacter pylori (IS608), UniProt Q933Z0 1-155, looked up)
chain: T1 sequence
With B1 the “β-galactosidase activity, fold above negative control” value [1] was 5 fold.

B2: ss60 (LE80 with 60-nt ss tail, S46) (structured_DNA)
DNA: CGCTAGTGCAAAAATTACCAAAACTAACGCCTTAAAGCCCCTAGCTTTTAGCTATGGGGATACAAGGCGAAACGCCTTCTGATGTCCTGTCGCCTCTGCCCGAAGACTCTAGATCGATTCAAGCTTCGCCTCTCAGCT
B2: binds [2].

B3: ds60 (S46 + S44) (mixed)
DNA 1: B2 DNA
DNA 2: AGCTGAGAGGCGAAGCTTGAATCGATCTAGAGTCTTCGGGCAGAGGCGACAGGACATCAG
B3: binds [3].

B4: fork / flap (L73 + L76l + L77) (mixed)
DNA 1: GTGATGACCTGTCGCCTCTGCCCGAAGACTCTAGATCGATACAAGCTACGCCTCTCAGCTCCGATGATGACGCTC
DNA 2: GAGCGTCATCATCGGAGCTGAGAGGCGTAGCTTGTATCTAGGAAGCCGCTGTAGCTCTCGCAATCAGCAGCCTTGTGCCG
DNA 3: CGGCACAAGGCTGCTGATTGCGAGAGCTACAGCGGCTTCCTA
B4: binds [4].

B5: LE100 (structured_DNA)
DNA: CGGGCTGCAGGAATTCGATTTGCGCTAGTGCAAAAATTACCAAAACTAACGCCTTAAAGCCCCTAGCTTTTAGCTATGGGGATACAAGGCGAAACGCCTT
B5: binds [5].

B6: ss target 125 nt (S56) (ssDNA)
DNA: GTGATGTCCTGTCGCCTCTGCCCGAAGACTCTATTACGATTCAAGCTTCGCCTCTCAGCTCCGATGATGTCGCTCATGCCTGCAGCAATGGCAACAACGAACGGCAAACTATTAACTGGCGAACT
B6: binds [6].
